Measurements taken from article PMC7305210, “Mitochondria-adaptor TRAK1 promotes kinesin-1 driven transport in crowded environments” (Nature Communications, 2020).

T1: GFP-labelled KIF5B∆ (KIF5B without the inhibitory domain, amino acids 906-963) (human, UniProt P33176 1-905)
T1 construct: Constitutively active construct; also called KIF5B∆-GFP; source: SF9 insect cells (FlexiBAC baculovirus), purified (Ni-NTA, 6xHis cleaved by 3C PreScission protease, second Ni-NTA); not shown: GFP, C-terminal, kept; 6xHis, C-terminal, cleaved
T1 sequence (looked up): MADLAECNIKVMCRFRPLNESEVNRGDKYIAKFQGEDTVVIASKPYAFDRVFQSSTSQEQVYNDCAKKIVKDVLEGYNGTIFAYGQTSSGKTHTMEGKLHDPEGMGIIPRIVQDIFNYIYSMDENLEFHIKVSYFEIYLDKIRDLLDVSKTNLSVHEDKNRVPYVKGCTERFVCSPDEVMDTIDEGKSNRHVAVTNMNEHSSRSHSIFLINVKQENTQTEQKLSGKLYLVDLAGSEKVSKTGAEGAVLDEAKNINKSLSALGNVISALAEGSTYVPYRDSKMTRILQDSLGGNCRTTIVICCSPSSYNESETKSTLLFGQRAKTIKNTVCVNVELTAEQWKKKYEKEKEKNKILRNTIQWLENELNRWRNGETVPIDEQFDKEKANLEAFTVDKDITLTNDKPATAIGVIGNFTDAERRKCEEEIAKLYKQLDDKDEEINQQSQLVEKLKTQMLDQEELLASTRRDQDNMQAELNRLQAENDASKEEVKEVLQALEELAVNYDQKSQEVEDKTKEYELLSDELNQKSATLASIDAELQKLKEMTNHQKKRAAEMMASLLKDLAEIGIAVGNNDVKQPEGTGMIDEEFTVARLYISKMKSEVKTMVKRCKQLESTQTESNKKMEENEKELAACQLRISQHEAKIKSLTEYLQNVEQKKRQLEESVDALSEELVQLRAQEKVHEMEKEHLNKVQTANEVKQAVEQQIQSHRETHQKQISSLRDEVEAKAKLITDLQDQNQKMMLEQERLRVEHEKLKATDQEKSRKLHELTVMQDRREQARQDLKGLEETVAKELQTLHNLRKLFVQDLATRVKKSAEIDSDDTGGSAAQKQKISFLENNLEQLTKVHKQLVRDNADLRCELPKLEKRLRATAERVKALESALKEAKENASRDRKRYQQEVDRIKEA


Legend:
[1] = target: T1, GFP-labelled KIF5B∆ (KIF5B without the …); assay: single-molecule fluorescence intensity distributions (TIRF) with labelling efficiencies from SEC absorption; intensity distributions of KIF5B∆-mCherry compared with mCherry-TRAK1 in the motility experiments; labelling efficiencies about 22% and about 88%; details: both partners purified
[2] = target: the molecule itself; assay: as above
[3] = target: microtubules polymerized from porcine tubulin (porcine, UniProt P02550 1-451; Q767L7 1-444, Alexa Fluor 647 NHS ester on 20% of the tubulin in fluorescently labeled microtubules | Alexa Fluor 647 NHS ester on 20% of the tubulin in fluorescently labeled microtubules); assay: single-molecule TIRF microscopy, two-colour co-movement on immobilised microtubules; KIF5B construct and 175 nM TRAK1 construct pre-incubated 10 min on ice, flushed onto bare immobilised microtubules in motility buffer with 1 mM Mg-ATP; room temperature; for the complexes traces of the mCherry-TRAK1 channel analysed; details: both partners purified

stoichiometry N [1] | median interaction time with microtubules [3] [s] | Binder | stoichiometry N [2]
1 TRAK1 dimer per KIF5B dimer |  | mCherry-labelled full-length TRAK1 (natural protein, UniProt Q9UPV9-1 1-953, looked up, TRAK1 (trafficking kinesin protein 1), cDNA KIAA1042 from the Kazusa DNA Research Institute; 953 residues by the printed region 636-953; also called mCherry-TRAK1; trafficking kinesin protein 1; source: HEK293T cells, transfected, purified (StrepTactinXT, eluted by TEV cleavage of the N-terminal tag, Superose 6 SEC); not shown: mCherry, N-terminal, kept; TwinStrep-FLAG-Halo, N-terminal, cleaved) MALVFQFGQPVRAQPLPGLCHGKLIRTNACDVCNSTDLPEVEIISLLEEQLPHYKLRADTIYGYDHDDWLHTPLISPDANIDLTTEQIEETLKYFLLCAERVGQMTKTYNDIDAVTRLLEEKERDLELAARIGQSLLKKNKTLTERNELLEEQVEHIREEVSQLRHELSMKDELLQFYTSAAEESEPESVCSTPLKRNESSSSVQNYFHLDSLQKKLKDLEEENVVLRSEASQLKTETITYEEKEQQLVNDCVKELRDANVQIASISEELAKKTEDAARQQEEITHLLSQIVDLQKKAKACAVENEELVQHLGAAKDAQRQLTAELRELEDKYAECMEMLHEAQEELKNLRNKTMPNTTSRRYHSLGLFPMDSLAAEIEGTMRKELQLEEAESPDITHQKRVFETVRNINQVVKQRSLTPSPMNIPGSNQSSAMNSLLSSCVSTPRSSFYGSDIGNVVLDNKTNSIILETEAADLGNDERSKKPGTPGTPGSHDLETALRRLSLRRENYLSERRFFEEEQERKLQELAEKGELRSGSLTPTESIMSLGTHSRFSEFTGFSGMSFSSRSYLPEKLQIVKPLEGSATLHHWQQLAQPHLGGILDPRPGVVTKGFRTLDVDLDEVYCLNDFEEDDTGDHISLPRLATSTPVQHPETSAHHPGKCMSQTNSTFTFTTCRILHPSDELTRVTPSLNSAPTPACGSTSHLKSTPVATPCTPRRLSLAESFTNTRESTTTMSTSLGLVWLLKERGISAAVYDPQSWDRAGRGSLLHSYTPKMAVIPSTPPNSPMQTPTSSPPSFEFKCTSPPYDNFLASKPASSILREVREKNVRSSESQTDVSVSNLNLVDKVRRFGVAKVVNSGRAHVPTLTEEQGPLLCGPPGPAPALVPRGLVPEGLPLRCPTVTSAIGGLQLNSGIRRNRSFPTMVGSSMQMKAPVTLTSGILMGAKLSKQTSLR | 2
 | 19.3 | KIF5B-GFP-mCherry-TRAK1 complex (complex, KIF5B, kinesin-1 heavy chain, human, amino acids 1-963; as m1; TRAK1, cDNA KIAA1042; as m5; Only traces of mCherry-TRAK1 were analysed, so that the moving particles are complexes; also called KIF5B-TRAK1 transport complex; source: the two purified proteins (m1 from SF9, m5 from HEK293T) pre-incubated 10 min on ice; not shown: GFP, C-terminal, kept; 6xHis, C-terminal, cleaved; mCherry, N-terminal, …) chain 1: MADLAECNIKVMCRFRPLNESEVNRGDKYIAKFQGEDTVVIASKPYAFDRVFQSSTSQEQVYNDCAKKIVKDVLEGYNGTIFAYGQTSSGKTHTMEGKLHDPEGMGIIPRIVQDIFNYIYSMDENLEFHIKVSYFEIYLDKIRDLLDVSKTNLSVHEDKNRVPYVKGCTERFVCSPDEVMDTIDEGKSNRHVAVTNMNEHSSRSHSIFLINVKQENTQTEQKLSGKLYLVDLAGSEKVSKTGAEGAVLDEAKNINKSLSALGNVISALAEGSTYVPYRDSKMTRILQDSLGGNCRTTIVICCSPSSYNESETKSTLLFGQRAKTIKNTVCVNVELTAEQWKKKYEKEKEKNKILRNTIQWLENELNRWRNGETVPIDEQFDKEKANLEAFTVDKDITLTNDKPATAIGVIGNFTDAERRKCEEEIAKLYKQLDDKDEEINQQSQLVEKLKTQMLDQEELLASTRRDQDNMQAELNRLQAENDASKEEVKEVLQALEELAVNYDQKSQEVEDKTKEYELLSDELNQKSATLASIDAELQKLKEMTNHQKKRAAEMMASLLKDLAEIGIAVGNNDVKQPEGTGMIDEEFTVARLYISKMKSEVKTMVKRCKQLESTQTESNKKMEENEKELAACQLRISQHEAKIKSLTEYLQNVEQKKRQLEESVDALSEELVQLRAQEKVHEMEKEHLNKVQTANEVKQAVEQQIQSHRETHQKQISSLRDEVEAKAKLITDLQDQNQKMMLEQERLRVEHEKLKATDQEKSRKLHELTVMQDRREQARQDLKGLEETVAKELQTLHNLRKLFVQDLATRVKKSAEIDSDDTGGSAAQKQKISFLENNLEQLTKVHKQLVRDNADLRCELPKLEKRLRATAERVKALESALKEAKENASRDRKRYQQEVDRIKEAVRSKNMARRGHSAQIAKPIRPGQHPAASPTHPSAIRGGGAFVQNSQPVAVRGGGGKQV chain 2: MALVFQFGQPVRAQPLPGLCHGKLIRTNACDVCNSTDLPEVEIISLLEEQLPHYKLRADTIYGYDHDDWLHTPLISPDANIDLTTEQIEETLKYFLLCAERVGQMTKTYNDIDAVTRLLEEKERDLELAARIGQSLLKKNKTLTERNELLEEQVEHIREEVSQLRHELSMKDELLQFYTSAAEESEPESVCSTPLKRNESSSSVQNYFHLDSLQKKLKDLEEENVVLRSEASQLKTETITYEEKEQQLVNDCVKELRDANVQIASISEELAKKTEDAARQQEEITHLLSQIVDLQKKAKACAVENEELVQHLGAAKDAQRQLTAELRELEDKYAECMEMLHEAQEELKNLRNKTMPNTTSRRYHSLGLFPMDSLAAEIEGTMRKELQLEEAESPDITHQKRVFETVRNINQVVKQRSLTPSPMNIPGSNQSSAMNSLLSSCVSTPRSSFYGSDIGNVVLDNKTNSIILETEAADLGNDERSKKPGTPGTPGSHDLETALRRLSLRRENYLSERRFFEEEQERKLQELAEKGELRSGSLTPTESIMSLGTHSRFSEFTGFSGMSFSSRSYLPEKLQIVKPLEGSATLHHWQQLAQPHLGGILDPRPGVVTKGFRTLDVDLDEVYCLNDFEEDDTGDHISLPRLATSTPVQHPETSAHHPGKCMSQTNSTFTFTTCRILHPSDELTRVTPSLNSAPTPACGSTSHLKSTPVATPCTPRRLSLAESFTNTRESTTTMSTSLGLVWLLKERGISAAVYDPQSWDRAGRGSLLHSYTPKMAVIPSTPPNSPMQTPTSSPPSFEFKCTSPPYDNFLASKPASSILREVREKNVRSSESQTDVSVSNLNLVDKVRRFGVAKVVNSGRAHVPTLTEEQGPLLCGPPGPAPALVPRGLVPEGLPLRCPTVTSAIGGLQLNSGIRRNRSFPTMVGSSMQMKAPVTLTSGILMGAKLSKQTSLR | 
